Measurements as given in the supplement of paper PMC12764529.
± gives the half width of the 95% confidence interval.

assay: folding stability dG unfold from chymotrypsin proteolysis; higher = more stable
Method in brief: (§1)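 Unfolding free energy was derived, per protease or combined, by relating Bayesian-fitted K50 values from sequencing counts to a sequence-predicted unfolded-state K50 and a shared folded-state K50. The underlying digests exposed cysteine-free mini-proteins under 80 residues, in a PA-tagged cDNA display construct, to trypsin and chymotrypsin at 11 threefold-diluted concentrations and to a no-protease condition. A filter kept only designs with AlphaFold2 dimer inter-PAE above 15.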

Sequence | folding stability dG unfold
SAGGSAGGSAMTVPLDTLTPERLRELLAENPERVVLKSADSVLVLSRDPATGRLTVTSHELRSAGGSAGGSA [r18_75_JUSTAS] | 1.35 ± 0.014 kcal/mol
SAGGSAGGSAGSMVTKTTTVEEKIGPGNLKLVKEKITIYDPSTGKPIKEETKITIEPVLLSAGGSAGGSAGG [r17_317_JUSTAS] | 0.452 ± 0.24 kcal/mol
SAGGSAGGSAGETITVKIVRFKPGSPEVRKLAEKLGLSEEEVEPVEVFTFKSEEELKAALSAGGSAGGSAGG [r11_83_TrROS_Hall] | 0.471 ± 0.24 kcal/mol
SAKASELLKKLPFEAEIEEGEEFVKIKLKNPFLKNPNVTFEFEIPTKKGKPIKVKVTLTKNGAEKIEPSSAG [r14_401_TrMRF] | 2.18 ± 0.078 kcal/mol
SAMILPKTVPKTITYPGSEEEARAVAEAEAARLKAQGNVTVDITFVKKSPEGGYTIEITITDYAPPELLSAG [r14_413_JUSTAS] | 0.933 ± 0.28 kcal/mol
SPDPGMKPRPMYMIRIKIEVTTPDGKKRGKHDFIIQSPEEAKEFIEELAENRGMKIKKIDIDIYPMPWLKSA [r9_1226_TrROS] | 2.56 ± 0.061 kcal/mol
SAGGSAGGSPIDITDIEVEQHEHPDGQQYHEVKIRLPDGRPIKIWMSPGSTPDQVLKQAKEFISAGGSAGGS [r12_1047_TrROS] | -0.0705 ± 0.26 kcal/mol
SAGGSAGGSAGPMYIITHTSPNEPIEFIFPPDDAEEFLKKLKLPPNMNIKVEPIDPDDMKSAGGSAGGSAGG [r17_395_TrROS] | 0.715 ± 0.21 kcal/mol
SAGGSANWVKVEVKIPGGLKIEVWVPPGMSKEENQEKAQEMADEMAQMLRQMRENRKEGKPPTIDFSAGGSA [r15_704_TrROS] | 2.02 ± 0.065 kcal/mol
SAGGSAGGSAGKKKIIILINENMKEEEIVDYIKKKYGKNVKIEEIIPISPNIKIIKVIIDSAGGSAGGSAGG [r11_580_TrMRF] | 4.01 ± 0.17 kcal/mol
SKKITIEIELYRNPETKKLPLKLKAYNENGEPLGELEIEFTESPEEALEKALALAKELAESNDAEITFGLSA [r9_31_TrMRF] | 1.92 ± 0.036 kcal/mol
SAGGEKKVLIVKVEIKLINNGGEFEAEFVFPEDVTLEEILAKVKELLPPGAKAEIKIKEIKLVSEDGSAGGS [r16_393_TrMRF] | 2.76 ± 0.15 kcal/mol
SAGGSAGGSPEEFEIKIVEPTPIEINPNGSVSLTFTVPNGWYLRIMIMRPPDGNPQPMIMIIPSAGGSAGGS [r20_240_TrROS] | 3.54 ± 0.062 kcal/mol
SAGGSAGGSARRDEVVERARERLLEEHPDLKPGETATVVVRDPETDEVYVFRFDGDGRVYGSAGGSAGGSAG [r3_441_TrMRF] | 1.59 ± 0.11 kcal/mol
SPPHWMIMPTVERKDPNGEKKTVTYMIPVPPGNWDKMLDNIADEAGDPDLKIKEIEPSKNGFIMIKLKVKSA [r9_1101_TrROS] | 0.604 ± 0.48 kcal/mol
SAGGSIEEIAETLRDLLAPPEYEVDVEVVEVEVDPINPRIKRVRLKATVYPPDGSSREIEFEIPFDELSAGG [r13_215_TrMRF] | 1.77 ± 0.029 kcal/mol
SAMKIEPVPDPEHGRTYYTIKFKGAEVQIWENPGQYYISIRPPGNNKQIVIPAPPNDIDDILKELGIKPSAG [r14_4_TrROS] | 1.71 ± 0.16 kcal/mol
SAGGSAEEEEARRLAEELARRLEEEGYEIERVEVRVERLPDGTVRITVRVYRKDGKPVLELEITLPSAGGSA [r15_232_TrROS_Hall] | 4.99 ± 0.18 kcal/mol
SAGGSAGGSAEITVEWPNGRPVTVEPDPDSGMYEARFPDGWVVRAPFTNGKIPIDWIPPKDVSAGGSAGGSA [r18_405_TrROS] | 0.282 ± 0.07 kcal/mol
SAGGSPNIQVNVERDPKDGYIKFSITVPPGAPNMKIKIAIFENDKIVEKEEITMPPGKTTEYTFKIKSAGGS [r16_412_TrROS] | 4.13 ± 0.065 kcal/mol
SAGGSAGGSAGGVIKTFTSPDNKKYTVTVNKDGSVTVETFDPETGKKSISTVSAAEASLSAGGSAGGSAGGS [r10_838_JUSTAS] | 0.828 ± 0.066 kcal/mol

assay: folding stability dG unfold (combined trypsin and chymotrypsin); higher = more stable
Method in brief: as §1

Sequence | folding stability dG unfold
SAMNLKTFKIEVPDGKIFTIPPNYKAEIVEYDPEKGVVTIKLTAYETNPLKEVEKKEFSFKFKFLEEFPSAG [r14_927_TrMRF] | 1.46 ± 0.086 kcal/mol
SAVLRIPNPITGEVRTLTLPTEVPAVSPDGVTSFRSPENLAAAIRALPSDVKVLSVVEHPDGTVTIVVDPSA [r9_997_TrMRF] | -0.0685 ± 0.064 kcal/mol
SAGGSAGGSADNWFIQIKWRHPENGKKRTLHIPFKTPWDVEEIVEELAPPGMDEVEVKIYPFSAGGSAGGSA [r18_258_TrROS] | 1.03 ± 0.061 kcal/mol
SAGGVLETKLPGGVSVTYSETPFVKDGREYLVLPAAAGDPAGAPFVTTTVVEPETGEVLETTETPLASAGGS [r8_492_JUSTAS] | 0.465 ± 0.1 kcal/mol
SAGGSAPLVATEVSVEGNTIVVRSVTRLPNGTLSEDVVLIELPPLPLPPPAPWSTFPETGRLRLGPSAGGSA [r15_335_JUSTAS] | 0.481 ± 0.24 kcal/mol
SAGGSAGGDTITIWIPGMPLEELRDLLKAFFPGKDVSVEYDPEHGSFVLTVNGKKITIHIMPPNSAGGSAGG [r6_609_TrROS] | 4.45 ± 0.086 kcal/mol
SAGGSAGGSAGGKKYKPVKKIKVNGKTYTIIKKDGKYIIYDEKTKKKIVIKPGEKIKIKSAGGSAGGSAGGS [r10_559_TrROS_Hall] | 1.83 ± 0.34 kcal/mol
SAGGSAGGSPKIEIEQDPNGWWRVKIRPPDGKKRPINIPPGDPEKILDEAEENGWKIDEIEPWSAGGSAGGS [r12_891_TrROS] | 0.404 ± 0.12 kcal/mol
SAGWRMTIWVQYELPPGMPPERAKEAVRDIIRDIMRRFGLPMPPGMKIDIEPVEPSNDYVYYKVTIEFPSAG [r14_735_TrROS] | 5.22 ± 0.33 kcal/mol
SAGGDYWVFKIEITHRNPNGEPEKWDIFIWFDPDDPDMPAKELADWIAKYLAPNNGYEVKIEEIYPVSAGGS [r8_101_TrROS] | 4.7 ± 0.31 kcal/mol
